According to patent publication US8574569B2, “Stabilized protease composition” (Trobio AB, priority 2005, dated 2013):

T1: trypsin (Bos taurus, UniProt P00760)
T1 construct: 100 μg/ml of trypsin (TPCK-treated, Sigma-Aldrich); purchased Sigma-Aldrich
T1 sequence (P00760 24-246): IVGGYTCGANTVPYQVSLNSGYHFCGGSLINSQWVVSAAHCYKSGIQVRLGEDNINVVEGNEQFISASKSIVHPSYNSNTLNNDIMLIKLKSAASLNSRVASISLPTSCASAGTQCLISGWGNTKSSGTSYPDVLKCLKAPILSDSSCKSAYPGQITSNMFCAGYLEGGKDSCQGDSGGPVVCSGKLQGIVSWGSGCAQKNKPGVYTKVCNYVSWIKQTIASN


Experiments:
plasmin = target: T2, plasmin (Homo sapiens, UniProt P00747); test: Stability of plasmin solutions (Chromozym TH chromogenic substrate, T 70%); assay type: physicochemical; conditions: 100 μg/ml plasmin in 10 mM HEPES, 0.13 M NaCl, pH 7.4, 37° C.
T2 construct: 100 μg/ml of plasmin (specific activity 3.2 units/mg, Sigma-Aldrich); purchased Sigma-Aldrich
Method: The stabilization of solutions of plasmin in accordance with the invention was tested. The activity of plasmin was determined using chromogenic peptide substrate Chromozym TH (Pentapharm, Switzerland) and measurement of absorbance change at 405 nm in a spectrophotometer. Solutions containing 100 μg/ml of plasmin (specific activity 3.2 units/mg, Sigma-Aldrich) in 10 mM HEPES and 0.13 M NaCl, pH 7.4, as well as stabilizers as indicated in Table 2 below were incubated at 37° C., and samples were taken out at various time intervals for activity determination.

trypsin = target: T1, trypsin; test: Stability of trypsin solutions (TAME substrate, T 70%); assay type: physicochemical; conditions: 100 μg/ml trypsin in 10 mM HEPES, 0.13 M NaCl, pH 7.4, 37° C.
Method: The stabilization of solutions of trypsin in accordance with the invention was tested. The activity of trypsin was determined using tosyl arginine methyl ester (TAME) as substrate and measuring the absorbance change at 247 nm in a spectrophotometer. Solutions containing 100 μg/ml of trypsin (TPCK-treated, Sigma-Aldrich) in 10 mM HEPES and 0.13 M NaCl, pH 7.4, as well as stabilizers as indicated in Table 3 below were incubated at 37° C., and samples were taken out at various time intervals for activity determination.

Molecule | T 70% (plasmin) [h] | T 70% (trypsin) [h]
plasmin: plasmin, specific activity 3.2 units/mg, Sigma-Aldrich, solution without additives (protein, UniProt P00747 20-580; P00747 581-810, looked up, Plasmin) Plasmin heavy chain A: EPLDDYVNTQGASLFSVTKKQLGAGSIEECAAKCEEDEEFTCRAFQYHSKEQQCVIMAENRKSSIIIRMRDVVLFEKKVYLSECKTGNGKNYRGTMSKTKNGITCQKWSSTSPHRPRFSPATHPSEGLEENYCRNPDNDPQGPWCYTTDPEKRYDYCDILECEEECMHCSGENYDGKISKTMSGLECQAWDSQSPHAHGYIPSKFPNKNLKKNYCRNPDRELRPWCFTTDPNKRWELCDIPRCTTPPPSSGPTYQCLKGTGENYRGNVAVTVSGHTCQHWSAQTPHTHNRTPENFPCKNLDENYCRNPDGKRAPWCHTTNSQVRWEYCKIPSCDSSPVSTEQLAPTAPPELTPVVQDCYHGDGQSYRGTSSTTTTGKKCQSWSSMTPHRHQKTPENYPNAGLTMNYCRNPDADKGPWCFTTDPSVRWEYCNLKKCSGTEASVVAPPPVVLLPDVETPSEEDCMFGNGKGYRGKRATTVTGTPCQDWAAQEPHRHSIFTPETNPRAGLEKNYCRNPDGDVGGPWCYTTNPRKLYDYCDVPQCAAPSFDCGKPQVEPKKCPGR Plasmin light chain B: VVGGCVAHPHSWPWQVSLRTRFGMHFCGGTLISPEWVLTAAHCLEKSPRPSSYKVILGAHQEVNLEPHVQEIEVSRLFLEPTRKDIALLKLSSPAVITDKVIPACLPSPNYVVADRTECFITGWGETQGTFGAGLLKEAQLPVIENKVCNRYEFLNGRVQSTELCAGHLAGGTDSCQGDSGGPLVCFEKDKYILQGVTSWGLGCARPNKPGVYVRVSRFVTWIEGVMRNN | 3 | –
trypsin: trypsin, TPCK-treated, Sigma-Aldrich, solution without additives (protein, UniProt P00760 24-246, looked up, TPCK-treated, trypsin, TPCK-treated, Sigma-Aldrich, solution without additives) Serine protease 1: IVGGYTCGANTVPYQVSLNSGYHFCGGSLINSQWVVSAAHCYKSGIQVRLGEDNINVVEGNEQFISASKSIVHPSYNSNTLNNDIMLIKLKSAASLNSRVASISLPTSCASAGTQCLISGWGNTKSSGTSYPDVLKCLKAPILSDSSCKSAYPGQITSNMFCAGYLEGGKDSCQGDSGGPVVCSGKLQGIVSWGSGCAQKNKPGVYTKVCNYVSWIKQTIASN | – | 0.6
